Laboratory results as given in PMC6086316, “Interactions between the Aggregatibacter actinomycetemcomitans secretin HofQ and host cytokines indicate a link between natural competence and interleukin-8 uptake” (Virulence, 2018).
Changes are numbered by the printed parent chain. Names and notes keep the numbering of the source.

B1: emHofQ_L1 (H136A, F137A, K139A) (domain or fragment)
chain: QNPVFSIRLKQAPLVPTLQQLALAHNTNLIIDDELQGTVSLQLENVDLDQLFRSVAKIKQLDLWQENGIYYFTKGDTNTKFAGKMEEPFPLSLPMAEEPAQLNTATIKLAAAAASEVMKSLTGGSGSLLSPNGSITFDDRSNLLLIQDEPRSVRNIKKLIKELDKPIEQ
notes: they already carry the substitutions; Secretin HofQ of Aggregatibacter actinomycetemcomitans, extramembranous domain, residues 27-195; The printed gene begins with ATG (Met, in the NdeI site) and ends with CTC GAG (Leu-Glu, XhoI site) before the His tag of pET36b; also called emHofQ mutant L1; source: E. coli BL21 CodonPlus (DE3) RIL, induced overnight at 16°C, purified (HisTrap, size-exclusion …)
B2: emHofQ_L1L2 (H136A, F137A, K139A, D165A, R166A) (domain or fragment)
chain: B1 chain with D139A, R140A
notes: they already carry the substitutions; Secretin HofQ of Aggregatibacter actinomycetemcomitans, extramembranous domain, residues 27-195; The printed gene begins with ATG (Met, in the NdeI site) and ends with CTC GAG (Leu-Glu, XhoI site) before the His tag of pET36b; also called emHofQ mutant L1L2; source: E. coli BL21 CodonPlus (DE3) RIL, induced overnight at 16°C, purified (HisTrap, size-exclusion …)
B3: emHofQ_L2 (D165A, R166A) (domain or fragment)
chain: B1 chain with A110H, A111F, A113K, D139A, R140A
notes: they already carry the substitutions; Secretin HofQ of Aggregatibacter actinomycetemcomitans, extramembranous domain, residues 27-195; The printed gene begins with ATG (Met, in the NdeI site) and ends with CTC GAG (Leu-Glu, XhoI site) before the His tag of pET36b; also called emHofQ mutant L2; source: E. coli BL21 CodonPlus (DE3) RIL, induced overnight at 16°C, purified (HisTrap, size-exclusion …)

Molecular target: T1, human mature interleukin-1β (IL-1β, amino acids 117-269) (human)
T1 construct: Human mature IL-1β, amino acids 117-269; Expressed from pET-28bTEV; source: E. coli BL21 CodonPlus (DE3) RIL, purified (HisTrap, TEV cleavage, size-exclusion chromatography); not shown: His6, N-terminal, cleaved
Experiment: time-resolved fluorometric immunoassay (TRFIA); 60 pmol IL-8 or IL-1β coated on wells; emHofQ wild type and mutants 5 nM-2 μM, 4°C overnight; Eu-N1 anti-6xHis antibody; apparent Kd
Conditions: both partners purified

T1 sequence (chain, as listed by the source): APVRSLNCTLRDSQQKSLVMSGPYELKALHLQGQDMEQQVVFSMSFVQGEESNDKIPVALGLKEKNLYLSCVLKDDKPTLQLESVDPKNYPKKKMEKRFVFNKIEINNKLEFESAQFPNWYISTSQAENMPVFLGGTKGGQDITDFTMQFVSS

Row | Binder | Kd
1 | B1 | 450 ± 160 nM
2 | B2 | 440 ± 70 nM
3 | B3 | 330 ± 70 nM
